Test results taken from the supplement of paper PMC9732359.
± gives the uncertainty stated by the source.

Assay: protein stability index of a GFP-peptide fusion (yeast GPS) (PSI 1-4); higher = more stable; sorted into four equal gates, so the index is relative within each strain
In short: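 For each peptide, the protein stability index sums the read frequency in every gate after multiplying it by the gate number. Read frequencies came from plasmids that were PCR-amplified from each gate and Illumina-sequenced, with reads assigned to strains by barcodes. The gates were four equal bins of GFP/Cherry fluorescence ratio applied to mid-log yeast in leucine-free medium carrying a pooled library of tiled 17-residue yeast protein peptides fused downstream of GFP on a Cherry-expressing plasmid.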

Sequence | protein stability index (doa10∆) | protein stability index (pdr5∆) | protein stability index (san1∆) | protein stability index (ubr1∆)
NVELLNCIRILADKLEN [YIL149C/MLP2] | 1.22 ± 0.069 | 1.36 ± 0.074 | 1.06 ± 0.13 | 1.2 ± 0.045
AKLPGHKSLIRSISWAP [YGL100W/SEH1] | 2.74 ± 0.07 | 2.3 ± 0.058 | 2.2 ± 0.11 | 2.54 ± 0.055
LGMLDDNKMDSVKEDVK [SMC4] | 2.12 ± 0.15 | 2.61 ± 0.13 | 2.09 ± 0.24 | 
RQQQQRSILQSLNPALQ [SWI1] | 1.76 ± 0.051 | 1.92 ± 0.06 | 1.54 ± 0.084 | 1.89 ± 0.053
KIYDAFPQTAMLRRHAA [DIS3] | 2.41 ± 0.086 | 2.71 ± 0.079 | 2.58 ± 0.12 | 2.4 ± 0.061
GELEQAQAWINLGEYYA [RPN7] | 3.58 ± 0.28 | 3.03 ± 0.098 | 3.33 ± 0.1 | 3.26 ± 0.057
QILSTVVEDKPLLSKKE [SMB1] | 1.15 ± 0.061 | 1.19 ± 0.042 | 1.19 ± 0.12 | 1.48 ± 0.054
SSEALEAARICANKYMT [RPL10] | 1.35 ± 0.13 | 1.82 ± 0.16 | 1.36 ± 0.19 | 1.29 ± 0.11
TKLHSGDYGEEEDADQE [SRB8] | 2.5 ± 0.16 | 2.58 ± 0.12 |  | 2.38 ± 0.2
SRIVEIFALCIYNSTDS [YML103C/NUP188] | 1.2 ± 0.093 | 1.21 ± 0.086 | 1.52 ± 0.11 | 1.2 ± 0.057
HGMFSSASVRALIENWA [FAS1] | 1.48 ± 0.11 | 1.84 ± 0.12 | 1.48 ± 0.17 | 1.76 ± 0.064
VTGGKKALVLFVPVPAL [RPS7B] | 1.58 ± 0.061 | 2.03 ± 0.1 | 2.14 ± 0.11 | 1.52 ± 0.054
CIVDFTNPKLKSEFDDL [YMR129W/POM152] | 1.81 ± 0.067 | 2.1 ± 0.074 | 1.82 ± 0.13 | 1.69 ± 0.052
GLQGSGKTTSCTKLAVY [SRP54] | 2.47 ± 0.12 | 2.91 ± 0.077 | 1.97 ± 0.27 | 2.66 ± 0.089
VNGVPLRRVNARYVIAT [RPL6A] | 1.61 ± 0.095 | 1.9 ± 0.066 | 1.37 ± 0.11 | 1.23 ± 0.05
LILILVISFGQPKLNPM [SWI1] | 1.68 ± 0.054 | 1.61 ± 0.042 | 1.78 ± 0.092 | 2.09 ± 0.04
LRRTTQRVFDETEQEYS [YDL116W/NUP84] | 3.21 ± 0.064 | 3.03 ± 0.046 | 3.2 ± 0.061 | 3.19 ± 0.043
DDDIEKQEQEEKIKSKK [YCG1] | 3.08 ± 0.067 | 2.99 ± 0.056 | 3.01 ± 0.052 | 3.14 ± 0.049
AFPHLYNSRPRSVRIPW [PRP8] | 2.94 ± 0.1 | 2.45 ± 0.084 | 1.7 ± 0.13 | 2.59 ± 0.066
ELQKIYDRHQSSSKQQS [SMC4] | 3.33 ± 0.084 | 3.33 ± 0.095 | 3.35 ± 0.08 | 3.57 ± 0.051
VLSTEEILNIFKHISVK [RPO21] | 2.68 ± 0.13 | 3.44 ± 0.24 | 2.94 ± 0.12 | 1.6 ± 0.17
PPNNARRTYNTLEDKFL [ISW2] | 2.09 ± 0.04 | 2.02 ± 0.045 | 1.6 ± 0.11 | 1.95 ± 0.035
AKSLLKLQLGQLYESGN [COR1] | 2.97 ± 0.12 | 3.27 ± 0.13 | 2.99 ± 0.1 | 3.01 ± 0.087
MPVAPTMEVKSFPILDQ [YMR129W/POM152] | 1.36 ± 0.1 | 1.29 ± 0.11 | 1.2 ± 0.2 | 1.22 ± 0.093
TLDREYITLKATFLKDD [QCR2] | 1.38 ± 0.065 | 1.44 ± 0.045 | 1.51 ± 0.1 | 1.5 ± 0.048

Sequence | protein stability index (doa10∆) | protein stability index (pdr5∆) | protein stability index (san1∆) | protein stability index (ubr1∆)
KVEKVVKCKMSALQQIM [SNF2] | 2.86 ± 0.12 | 3.05 ± 0.24 | 2.95 ± 0.14 | 3.13 ± 0.09
LFLEPSWSSSAAVIMRC [PCI8] | 1.19 ± 0.087 | 2.07 ± 0.093 | 1.58 ± 0.16 | 2.39 ± 0.095
ILATNSLRILAKLSERS [YJL039C/NUP192] | 2.39 ± 0.062 | 2.67 ± 0.062 | 2.49 ± 0.085 | 2.67 ± 0.053
LSSNITFDGKPTATPSP [YMR153W/NUP53] | 2.91 ± 0.057 | 3.03 ± 0.058 | 3 ± 0.043 | 2.91 ± 0.046
TDDQGRVIDDNNRRRSR [SIR3] | 3.66 ± 0.12 | 3.05 ± 0.24 | 3.39 ± 0.17 | 
KLRKIAISKKNKSLKYV [LIN1] | 1.65 ± 0.062 | 1.33 ± 0.059 | 1.23 ± 0.14 | 1.15 ± 0.048
PMIKAEETPSKTNKISI [NUT1] | 2.52 ± 0.057 | 2.8 ± 0.049 | 2.6 ± 0.06 | 2.84 ± 0.051
RQFLHELRRPGVDNLRR [RPO31] | 1.27 ± 0.078 | 1.37 ± 0.097 | 1.25 ± 0.23 | 1.64 ± 0.093
NNRISNANEISANTNNT [SWP82] | 2.14 ± 0.05 | 2.25 ± 0.049 | 2.54 ± 0.066 | 2.66 ± 0.048
DSLENNEGVPSPMLSIS [FAS1] | 3.08 ± 0.077 | 2.56 ± 0.062 | 2.4 ± 0.1 | 3.29 ± 0.094
ETQVLVSTPEKWDITTR [BRR2] | 3.17 ± 0.092 | 3.26 ± 0.083 | 3.31 ± 0.053 | 3.21 ± 0.034
KEKYGLAVSTILGKNFD [SMC1] | 2.98 ± 0.07 | 2.82 ± 0.066 | 2.69 ± 0.057 | 2.58 ± 0.05
WSWDIAVDNCAICRNHI [HRT1] |  |  |  | 2.04 ± 0.23
KLHMGTDDVRLAPELNQ [RPL31A] | 3.11 ± 0.12 | 3.25 ± 0.083 | 3.13 ± 0.083 | 3.09 ± 0.052
PENLQVTSEKYPFDKLE [BRR2] | 2.86 ± 0.085 | 3.07 ± 0.093 | 2.93 ± 0.064 | 3.19 ± 0.035
SFIINFISNLPNVSDKY [NUT1] | 2.28 ± 0.08 | 1.91 ± 0.07 | 2.06 ± 0.15 | 1.95 ± 0.057
GDVVLAAAYSHELPRYG [RPL5] | 2.83 ± 0.073 | 2.95 ± 0.068 | 2.99 ± 0.061 | 2.97 ± 0.074
DDYVLRIFAIAFTRKQA [RPS1A] | 1.77 ± 0.019 | 1.888 ± 0.017 | 1.94 ± 0.027 | 2.156 ± 0.015
TPTHSDSHEDMKRRRLE [ROX3] | 2.89 ± 0.15 | 3.33 ± 0.15 | 3.14 ± 0.18 | 3.14 ± 0.091
GTQLATLKNRGLPLGIA [YGR119C/NUP57] | 2.04 ± 0.067 | 2.29 ± 0.059 | 2.57 ± 0.1 | 2.23 ± 0.031
KALDELKPEIEKLTSKS [LRP1] | 2.86 ± 0.089 | 2.93 ± 0.077 | 2.93 ± 0.068 | 2.74 ± 0.066
YSSRVDSVTTETGKLLS [BRN1] | 2.38 ± 0.13 | 2.46 ± 0.14 | 2.34 ± 0.21 | 2.11 ± 0.18
TDLEKKHLWDQKSLAAL [RPC17] | 2.86 ± 0.11 | 2.98 ± 0.062 | 2.94 ± 0.081 | 3.02 ± 0.059
FAKEKLTKKEKKEANLF [RPL6A] | 3.02 ± 0.072 | 3.08 ± 0.08 | 3.19 ± 0.073 | 3.14 ± 0.05
SMNNDFQQQQQQQQQQQ [PGD1] | 2.43 ± 0.1 | 2.9 ± 0.16 | 2.54 ± 0.11 | 2.29 ± 0.14
